Experiment: yeast display, Sf9 membrane polyspecificity reagent, FACS + sequencing; frameworks hold sequencing errors
In short: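 A nanobody's polyreactivity label depends on the gate it was sorted from. Yeast display cells were stained with 10% biotinylated, detergent-solubilized Sf9 membrane reagent for 1 hour at 4 °C, enriched on streptavidin microbeads and sorted by FACS. The low and high (top ~1%) gates were set on anti-HA fluorescence for expression and streptavidin fluorescence for reagent binding.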

Question: With “QVHLVESGGGLVQAGGSLRLSCAASGYTDYAMGWYRKAPGKERELVATITSGDNTNYADSVKGRFTSSRDNAKNTVYLQMNSLKAEDTAVYYCAAVYGLHYGIDYWGQGTQVNVSS” as the sequence, how does the “polyreactivity (PSR sort gate)” value read?
Answer: Its value is “low polyreactivity”.

Question: With “RYADSVKGRFTISRDNAKNTDYLQMNSLKPEDTAVYYCAAKGPEPPSLDESDYWGQVTQVTVSS” as the sequence, how does the “polyreactivity (PSR sort gate)” value read?
Answer: Its value is “low polyreactivity”.

Question: Which “polyreactivity (PSR sort gate)” value does the source give for “QVQLVESGGGLVQAGGSLRLSCAASGFTFRNYAMGWYRQAPGKERELVAAISQSGGITYYADTVKGRFTISRDNAKNTVYLQMYSLKPEDTAVYYCAAERFPRSSKGYFRTYDYWGQGTQVTVSS” here?
Answer: The value was “high polyreactivity”.

Question: For “QVQLVESGGGLVQAGGSLRLSCAASGSIFRGYTMGWYRQAPGKERELVAAISRSGGSTYYADSVKGRFTISRDNAKNTVYLQMNSLKPEDTAVYYCNVVYFVTTSAGYDYWGQGTQVTVSS”, which “polyreactivity (PSR sort gate)” value is on record?
Answer: The value was “high polyreactivity”.

Question: For “QVQLVESGGGLVQAGGSLRLSCAASGSTFYQYAMGWYRQAPGKERELVAVITGSGGSTYYADSVKGRFTISRDNAKNTVYLQMNSLKPEDTAVYYCAAGARYFIYRTTSLGGNYWGQGTQVTVSS”, which “polyreactivity (PSR sort gate)” value is on record?
Answer: Its value is “high polyreactivity”.

Question: For “QVQLVDSGGGLVQAGGSLRLSCAASGSTIPNYAMGWYRQAPGKERELVADIDSSGGSTYYADSVKGRFTISRDNAKNTVYLQMNSLKPEDTAVYYCAAGYFWYDVLNSRVLVWNNYWGQGTQVTVSS”, which “polyreactivity (PSR sort gate)” value is on record?
Answer: Its value is “high polyreactivity”.

Question: With “QVQIVESGGGLVQAGGSLRLSCDASGRIFTAYAMGWYRQAPGKERELVAAISSGDSTYYAYSVKGRFSISRDNAKNTLYLQMNSLNPEDTEVYYCATCVYPDFEYDSWGQGTQVTVSA” as the sequence, how does the “polyreactivity (PSR sort gate)” value read?
Answer: The value was “low polyreactivity”.

Question: For “QVQLVESGGGLVQAGGSLRLSCAASGRTFSRYAMGWYRQAPGKERELVASMTRRGGRTYYADSVKGRFTISRDNAKNTVYFQMTSLKPEDTAGYYCNATSQIPWSSYYYWGQGTQVTVSS”, which “polyreactivity (PSR sort gate)” value is on record?
Answer: The value was “high polyreactivity”.

Question: With “QVQLVESGGGLVQAGGSLRLSCAASGRIFAYNAMGWYRQAPGKERELVAAIDSGGDTNYADSVKGRFTISRDNAKNTVYLQMNSLKPEDTAVYYCAARLYVLRWYPYDYWGHGTQVTVSS” as the sequence, how does the “polyreactivity (PSR sort gate)” value read?
Answer: Its value is “low polyreactivity”.

Question: For “QVQLVESGGGLVQAGGSLRLSCAASGSTVKTYAMGWYRQAPGKERELVAAISWSGGSTYYADSVKGRFTISRDNAKNTVYLQMNSLKPEDTAVYYCNAGWGYPSPWFIGEYWGQGTQVTVSS”, which “polyreactivity (PSR sort gate)” value is on record?
Answer: Its value is “low polyreactivity”.

Question: Which “polyreactivity (PSR sort gate)” value does the source give for “QVQLVESGGGLVQAGGSLRLSCAASGLTFYRYAMGWYRQAPGKEMELVAAIRVSGNTYYADSVKGPFTISRDNAKNTVYLEMNCLKPEDTAVYYCAAKPYYFYGMDYWGQGTQVTVSS” here?
Answer: Its value is “high polyreactivity”.

Question: For “QVQLVESGGGLVQAGGSLRLSCAASGSTFNEYTMGWYRQAPGKERELVAAIRATDGSTYYADSVKGRFTISRDNAKNTVYLQMNSLKPEDTAVYYCAADYYWNDYWGQGTQVTVSS”, which “polyreactivity (PSR sort gate)” value is on record?
Answer: The value was “low polyreactivity”.

Question: Which “polyreactivity (PSR sort gate)” value does the source give for “QVQLVESGGGLVQAGGSLRLSCAASGFIFRYNAMAWYRQAPGKERELVAAIDSGGSTYYADSVKGRFTISRDNAKNTVYLQMNSMKPEDNAVYYCNAVVEASYPCVDYWGQGTQVTVSS” here?
Answer: The value was “low polyreactivity”.

Question: For “QVKLVESGGGLVQAGGSLRLSCAASGGIFYFNPMGWYRQEPGKERELVASITWSGGNTYYADSVKGRFTISRDIAKNTVSLQMISLKPEDTAVYYCAAYYVTPIYYYWGQGTQVTVSS”, which “polyreactivity (PSR sort gate)” value is on record?
Answer: The value was “low polyreactivity”.

Question: Which “polyreactivity (PSR sort gate)” value does the source give for “QVQLVESGGGLVQAGGSLRLICAASGNIFDLYAMGWYRQAPGKERELVAAITRSSSRTYYADSVKGRFTISRDNAKNTVSLQMNSLKPEDTAVYYCRAKQVNRVDYWGQGTQVTVSS” here?
Answer: The value was “high polyreactivity”.

Question: Which “polyreactivity (PSR sort gate)” value does the source give for “QVQLVESGGGLVQAGGSLRLSCSASGFIFSRYVMGWYRKAPGKEREFVAVISYRGGSTYYADSVKGRFTFSRDNAKNTVYLQMNSLKPEDTAVYYCNADTIPDGEDRYDYWGQGTQVTVSS” here?
Answer: The value was “low polyreactivity”.

Question: For “QVQLVESGGGLVQAGGSLRLSCAASGSIFRSYAMGWYRQAPGTERELVDGISYSGGSTYYADSVKGRFTISRDNAKNTVYLQMNSLKPEDTAVYYCNVDGGTYFFFVGAWGEYDYWGQGTQVTVSS”, which “polyreactivity (PSR sort gate)” value is on record?
Answer: Its value is “low polyreactivity”.

Question: With “QVQLVESGGRLVQAGGSLRLSGADSGSIFSSYAMGWNRPAPGKERELVAAISSSGDSTYADSEKGRFTISRDNAKNSVDLQMNSLKPEDTAVYYCAVGGAGSDDYWGQGTQVTVSS” as the sequence, how does the “polyreactivity (PSR sort gate)” value read?
Answer: Its value is “low polyreactivity”.

Question: With “QVQLVESGGGLVQAGGSLRLSCAASGSIFDTYAMGWYRQAPGKEREFVAAISRNGGSTYYADSVKGRFTISRDNAKNTVYLQMNSLKAEDTAVYYCATDKRHKFDYWGQGTQVTVSS” as the sequence, how does the “polyreactivity (PSR sort gate)” value read?
Answer: Its value is “low polyreactivity”.

Question: Which “polyreactivity (PSR sort gate)” value does the source give for “QVQLVESGGGLVQAGGSLRLSCAASGIIFLWYAMGWYRQAPGKERELVAAISRTGSSTYYADSVKGRFTISRDNAKNTVYFQMNSLKPEDTAVYYCAAAYYSKRSWRFDYWGQGTQVTVSS” here?
Answer: Its value is “high polyreactivity”.

Question: Which “polyreactivity (PSR sort gate)” value does the source give for “QVQLVESGGGLVQAGGSLRLSCAASGFTFTRYAMGWYRQAPGKERELVASISTSGGRTYYADSVKGRFTISRDNAKNTVYLQMNSLKPEDTAVYYCAASWNTQSRGWQYDYWGQGTQVTVSS” here?
Answer: Its value is “low polyreactivity”.

Question: For “QVQLVESGGGLVQAGGSLRLSCAASGYTFHHNTMGWYRQAPGKERELVATISDGGSTNYADSVKGRFTISRDNAKNTVYLQMNSLKPEDTAVYYCAALYQQFQSALVPYFDVIEEDYWGQGTQVTVSS”, which “polyreactivity (PSR sort gate)” value is on record?
Answer: Its value is “low polyreactivity”.

Question: Which “polyreactivity (PSR sort gate)” value does the source give for “QVQLVESGGGLVQAGGSLRLSCAASGSIFSVYAMGWYRQAPGKERELVAAITRGGNTYYADSVKGRFTISRDNAKNTVYLQMNSLKPEDTAVYYCNAGPYGRFYYRGLGYWGQGTQVTVSS” here?
Answer: The value was “low polyreactivity”.

Question: Which “polyreactivity (PSR sort gate)” value does the source give for “QVQIVESGRGLFQAGGSLRLSCAASGSIFRFNVMGWYRPATGKECELVASISDSGDNTNYADSVKGRFTISGDNAKNPVDLLMNSLKPEDTAVYYCAARGSRWYIAVDYRGQGTQVTVSS” here?
Answer: The value was “low polyreactivity”.

Question: Which “polyreactivity (PSR sort gate)” value does the source give for “QVQLVESGGGLVQAGGSLRLSCAASGSTLSIYAMGWYRQAPGKERELVATIRWSAGRTSYADSVKGRFTISRDNAMNTVYLQMNSLKPEDTAVYSCNAVRYRYYFYWTGKSYDYWGQGTQVTVSS” here?
Answer: Its value is “high polyreactivity”.

Question: Which “polyreactivity (PSR sort gate)” value does the source give for “QVQLVESGGGLVQAGGSLRLSCAASGRTYINNAMGWYRQAPGKERELVAAISRRGGSTYYADSVKGRFTISRDNAKNTVYLQMNSLKPEDTAVSYCAADAFRSQRPYTYDYWGQGTQVTVSS” here?
Answer: The value was “high polyreactivity”.

Question: For “QVQLVESGGGLVQAGGSLRLSCAASGRIFVPYVMGWYRQAPGKERELVASISDSDTSTYYADSVKGRFTISRDNAKNTVYLQMNCLKPEDTAVYYCNVDYWGQGTQVTVSS”, which “polyreactivity (PSR sort gate)” value is on record?
Answer: The value was “low polyreactivity”.

Question: Which “polyreactivity (PSR sort gate)” value does the source give for “QVQLVESGGGLVQAGGSLRLSCAASGSTFIFNAMGWYRQAPGKERELVAGISSGSTYYADSVKGRFTISRDNAKNTVYLQMNSLIPEDTAVYSCATKLRRWRFYAAYDYWGQGTQVTVSS” here?
Answer: The value was “high polyreactivity”.

Question: With “QVQHEESGGGIVQAGGSLRLSSAASGRTFKYYDMGWFRQALGKERELVATISSSDSTNYADSVKGRFTISRDNAKNTVYLQLNSLKPEDTAVYYCNADFKLIYVFDYWGQGSQVTVSS” as the sequence, how does the “polyreactivity (PSR sort gate)” value read?
Answer: The value was “high polyreactivity”.

Question: With “QDQLVESGGGLVQAGGSLRLSCAASGRTSIWNAMGWYRQAPGKERELVASISWSGGSTYYADSVKGRFTISRDNAKNTVYLQMNSLKPEDTAVYYCAKTAYFLVFNEHLHKKRYDSWGQGTQVTVSS” as the sequence, how does the “polyreactivity (PSR sort gate)” value read?
Answer: Its value is “low polyreactivity”.

Question: Which “polyreactivity (PSR sort gate)” value does the source give for “QVHHVESGGGVVQAGGSLRLSCAASGRITYVNAMGWYRQPPGKESELVATITGSGDSKHYADSVKGRFTISRDNAMNTVYLQMNSLKPEVTAVYYGAADVYRYWQIYEYWGQGTQVTVSS” here?
Answer: The value was “low polyreactivity”.

Question: With “QVQLVESGGGLVQAGGSLRLSCAASGRTFYSNAMGWYRQAPGKERELVAAISYRGGRTYYADSVKGRFTISRDNAKNTVYLQMNSLKPEDTAVYYSAADAYVLFYGDWYECDYWGQGTQVTVSS” as the sequence, how does the “polyreactivity (PSR sort gate)” value read?
Answer: The value was “high polyreactivity”.

Question: For “QVKLVESGGCLVQSGGSLRLSCADYRSIFWNNSMGWYRQATGKEWELGAGISSAGSTNYSDSVKGRFTISRDNAKNTVYLQMNSLKPEDTAVYYCAAEQYRYGIRRRHYDYWGQGTQVTLSS”, which “polyreactivity (PSR sort gate)” value is on record?
Answer: The value was “low polyreactivity”.

Question: With “QVQLVESGGGLVQAGGSLRLSCAASGRIFDLNAMGWYRQAPGKERELVAAISYSGGRTFYADSVKGRFTISRDNAKNTVYLQMNSLKPEDTAVYYCNARYGKPAYQYRMDYWGQGTQVTVSS” as the sequence, how does the “polyreactivity (PSR sort gate)” value read?
Answer: The value was “low polyreactivity”.

Question: With “QVQLVDSGGGLDQAGGSLRLSCSASGIIFRGNAMGWYRQAPGKEREFVAAIALRGSRSYYADSVKGRFTISRDNAKNTVYLQMISLKPEDTAVYYCAARYYSEPNAYYYWGQGTQLTVSS” as the sequence, how does the “polyreactivity (PSR sort gate)” value read?
Answer: The value was “high polyreactivity”.

Question: For “QVQLVESGGGLVQAGGSLRLSCAASGFTFWSYAMGWYRQAPGKERELVAAISRNGGRTYYADSVKGRFTISRDNAKNTVYVQMNSLKPEDTAVYYCATRARNRYTEMDYWGQGTQVTVSS”, which “polyreactivity (PSR sort gate)” value is on record?
Answer: The value was “high polyreactivity”.

Question: Which “polyreactivity (PSR sort gate)” value does the source give for “QVQLVESGGGLVQAGGSLRLSCAASGFIFRDNAMGWYRQSPGKERELVAAISERGGRTYYADSVKGRFTISRDNAKNTVYLQMNSLKPEDTAVYYCADEDIAKFYYWGQGTQVTVSS” here?
Answer: Its value is “high polyreactivity”.

Question: With “QVQLVESGGGLVQAGGSLRLSCAASGSTFGLYAMGWYRQAPGKEREFVAAISWRTGSTYYADSVKGRFTISRDNAKNTVFLQMYSLKPEDTAVYYCAARAYGTIIHGYWGQGTHVTVSS” as the sequence, how does the “polyreactivity (PSR sort gate)” value read?
Answer: Its value is “high polyreactivity”.

Question: For “QVQLVESGGGLVQAGGSLRLSCAASGLILRGYAMGWYRQAPGKERELVAAISGSGGRTYYADSVKGRFTISRDNAKNTVYLQMNSLKPEDTAVYYCNKGGIREYDYWGQGTQVTVSS”, which “polyreactivity (PSR sort gate)” value is on record?
Answer: Its value is “high polyreactivity”.

Question: Which “polyreactivity (PSR sort gate)” value does the source give for “QLQLVESGGGLVQAGGSLRLSCAASGSTYGPYAMGWYRQAPGKERELVSAITISGDSTNYADSVKGRFTISRDNAKNTVYLQMNSLKPEDTAVYYCAAAYYWLQSWYDYWGQGTQVTVSS” here?
Answer: The value was “low polyreactivity”.

Question: With “QFQLVESGGGLVQAGGSLRLSCAASAGYALGGYRQAPGKERELVAVINYSGGSTYYADSVKGRFTISRDNAKNTVYLQMNSLKPEDTAVYYCAAVYRRRYYWGQGTQVTVSS” as the sequence, how does the “polyreactivity (PSR sort gate)” value read?
Answer: The value was “high polyreactivity”.

Source: the nanobody polyreactivity screen of Harvey et al. (2022)
